Test results as given in article PMC12122859 (Communications Biology, 2025).

Key:
[1] = target: T1, E2 alone (as compared with E1E2) (Hepatitis C virus genotype 1b, strain …)
T1 chain: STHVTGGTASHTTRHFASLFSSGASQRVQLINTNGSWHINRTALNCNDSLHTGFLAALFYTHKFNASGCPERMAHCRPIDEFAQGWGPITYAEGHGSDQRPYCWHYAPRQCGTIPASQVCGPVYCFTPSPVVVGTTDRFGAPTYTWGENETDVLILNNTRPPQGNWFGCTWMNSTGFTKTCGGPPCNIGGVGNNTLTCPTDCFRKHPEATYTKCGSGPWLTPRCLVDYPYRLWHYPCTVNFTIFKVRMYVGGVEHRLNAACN

[2] = target: soluble recombinant E1E2 (hepatitis C virus (strain not stated))
[3] = target: membrane-bound recombinant E1E2 (hepatitis C virus (strain not stated))

B1: CBH4B (antibody, format not stated, as tested on E1E2 and E2 alone) (antibody, V domains shown)
VH: QIQLVQSGAEVKKPGSSVKVSCRASGGSFGTYGITWVRQAPGQGLEWVGGIVPLFDRPNYAQKFQDRVAITADESTSTAYMELSSLRFDDTAVYYCAREADIVVGGSSYFDSWGQGTLVTVTK
VL: ESVLTQSPGTLSLSPGERATLSCRASQSVSSTYVAWYQQKPGQAPRLLIYDASIRATGVPDRFSGGGSGTDFTLTISRLEPEDFAVYYCQQYGGSPFFGGGTKVEIK
- Kd [1]: 0.08 nM
- Kd [2]: 19 nM
- Kd [3]: 3.1 nM
